Laboratory results published in patent publication US20240084003A1 (SIMCERE ZAIMING PHARMACEUTICAL, published 2024).
Where a chain is given by its changes, count along the chain named.

B1: F2.70.2 (antibody, human IgG1, lambda, V domains shown)
VH: EVQLVESGGGLVKPGGSLKLSCAASGFTFSDYGMNWFRQAPEKGLEWVAYISRGSHTIYYADTVKGRFTISRDNAKNTLFLQMTSLRSNDTAMYYCVRMAGYYAMDYWGQGTSVTVSS
VL: QLVLTQSSSASFSLGASAKLTCTLSSQHSSYIIEWYQQQPLKPPKYVMELKKDGSHSTGDGIPDRFSGSSSGADRYLSISNIQPEDEAIYICGVGDTIKEQFVYVFGGGTKVTVLG
notes: human-murine chimeric IgG1 lambda
B2: F2.173.9 (antibody, human IgG1, lambda, V domains shown)
VH: EVQLVESGGDLVKPGESLKLSCEASGFTFSNYAMSWVRQTPDRRLEWVATISSIGSFTYYSDSVKGRFTISRDNVKSTLHLQMNNLKSGDTAIYFCARLGVYFDSWGQGTTLTVSS
VL: B1 VL with S30T, I32T, L41H, Y46F, L50I, S57Y, A88T, G95S, T97M, E100D
notes: as for B1
B3: F2.180.16 (antibody, human IgG1, lambda, V domains shown)
VH: EVKLVESGGGLVLPGGSLKISCAASGFTFSDYYMYWIRQTPDKRLEWVAYISNTGYSTFYPDSVKGRFTVSRDNAKNTLYLQMSRLQSEDTAMYYCARHGILYAMDYWGQGTSVTVSS
VL: B1 VL with L2P, H28Y, S30T, I32T, E34G, K52H, H56R, S57H, I89T, V103M
notes: as for B1
B4: F2.104.10 (antibody, human IgG1, lambda, V domains shown)
VH: B1 VH with L11F, K76E, V114L
VL: B1 VL with L50V, P84S
notes: as for B1
B5: F2.121.9 (antibody, human IgG1, lambda, V domains shown)
VH: EVQLVESGGGLVKPGGSLKLSCAASGFTFSDYVMSWIRQTPEKRLEWVATISDAGSYTFYPDNLKGRFTISRDNAKNNLYLQMNHLTSEDTAFYYCAIIYFGNYGGYWGQGTLVTVSV
VL: QAVVTQESALTTSPGGTVVLTCRSNTGAVTTSNYANWVQEKPDHLFTGLIGGTSNRAPGVPVRFSGSLIGDKAALTITGAQTEDDAMYFCALWYSTHWVFGGGTKLTVLG
notes: as for B1
B6: F2.205.9 (antibody, human IgG1, lambda, V domains shown)
VH: QVTLKESGPGILQPSQTLSLTCSFSGFSLSTSGMGVGWIRQPSGKGLEWLAHIWWDDDEYYNPALKSRLTISKDTSKNQVFLKIANVDTADTATYYCARISIPYGYYDWFFDVWGTGTTVTVSA
VL: QAVVTQESALTTSPGETVTLTCRSSTGAVTTRNYANWVQEKPDHLFTGLIGGTNNRAPGVPARFSGSLIGDKAALTITGAQTEDEAIYFCALWYSNHFIFGSGTKVTVLG
notes: human-murine chimeric IgG1 lambda; VL name legible
B7: F2.151.13 (antibody, human IgG1, lambda, V domains shown)
VH: QVHLQQPGTELMKPGASVKLSCKATGYTFRDYWLEWVKQRPGHGLEWIGEILPGSGNAYYNEKFKGKATFTADTSSNTAYMQLSSLTTEDSAIYYCARVYSNWYFDAWGKGTTVTVSS
VL: B6 VL with R32S, R56Q, T78S, Y94F, F98W, I99V, S102G, V106L
notes: as for B1
B8: HA22-hIgG1 (antibody, V domains shown)
VH: EVQLVESGGGLVKPGGSLKLSCAASGFAFSIYDMSWVRQTPEKCLEWVAYISSGGGTTYYPDTVKGRFTISRDNAKNTLYLQMSSLKSEDTAMYYCARHSGYGTHWGVLFAYWGQGTLVTVSA
VL: DIQMTQTTSSLSASLGDRVTISCRASQDISNYLNWYQQKPDGTVKLLIYYTSILHSGVPSRFSGSGSGTDYSLTISNLEQEDFATYFCQQGNTLPWTFGCGTKLEIKR
B9: F2.55.1 (antibody, human IgG1, lambda, V domains shown)
VH: QVTLKESGPGILQPSQTLSLTCSFSGFSLSTFPLGVGWIRQPSGKGLEWLAHVWWNDDDYYNPALKSRLTISKDTSNTRVFLSVASVDTAETATYYCARLNWDRWYFDVWGTGTTVTVSS
VL: QLVLTQSSSASFSLGASAKLTCTLSSQHSAYTVEWYQQQPLKPPKYVMELKKDGSHSTGDGIPDRFSGSSSGADRYLSISNIQPEDEAIYICGVGDTVKEQFVFGGGTKVTVLG
notes: as for B6
B10: F2.343.16 (antibody, human IgG1, lambda, V domains shown)
VH: QVQLKQSGPGLVQPSQSLSITCTVSGFSLTGYGVQWVRQSPGKGLEWLGVIWGGGGTDYNAAFISRLNIIKDNSKSQVFFKMNSLQADDTAIYYCARYSKYGHFDVWGTGTAVTVSS
VL: QAVVTQESALTTSPGETVTLTCRSSTGAVTTSNYANWVQEKPDHLFTGLIGGTYNRVPGVPARFSGSLIGDKAALTITGAQTEDEAIYFCALWYSNHFWVFGGGTKLTVLG
notes: as for B6
B11: F1.245.2 (antibody, human IgG1, kappa, V domains shown)
VH: EVQLQQSGAELVKPGASVKLSCTGSGFNIKDYYIHWVKQRTEQGLEWMGRIDPEDGETEYAPKFQDEATITSDTSSNTAYLQLSSLTYEDTAVYYCAREAAGYFYRGSSYGYFDVWGTGTTVTVSS
VL: DFQMTQTTSFLSASLGDRVTISCSASQDISNYLNWYQQKPDGTVKLLIYYTSSLHSGVPSRFSGSGSGTDYSLTISNLEPEDIATYYCQQYSMLPYTFGGGTKLEMER
notes: human-murine chimeric IgG1 kappa
B12: F1.60.9 (antibody, human IgG1, kappa, V domains shown)
VH: QVQLKESGPGLVAPSQSLSITCTVSGLSLNNYGVSWVRQPPGKGLEWLGVIWGDGSTNYHSALISRLSISKDNSKSQVFLKLNSLHTDDTATYYCAINWGDYWGQGTTLIVSS
VL: DIKMTQSPSSMNASLGERVTITCKASQDINSYLSWFQQKPGKSPKILIYRANRLIDGVPSRFSGSGSGQDYSLTISSLEYEDMGIYYCLQYGVFPLTFGAGTKLELKR
notes: as for B11
B13: F1.257.3 (antibody, human IgG1, kappa, V domains shown)
VH: QVQLQQSGPELARPGASVKLSCKASGYTFTSYGISWVKQRTGQDLEWIGEIYPKLGTTYYNEKFKDKATLTTDRSSSTAYMALRSLTSEDSAVYFCACPHYYATRGGDYWGQGTTLTVSS
VL: EIVLTQSPATLSVTPGDSVTFSCRASQSISNHLHWYQQKSHESPRLLIRYASQSISGIPSRFSGSGSGTDFTLSLSSVETEDFGVYFCQQSHSWPYTFGGGTKLEIAR
notes: human-murine chimeric IgG1 kappa; VL name legible
B14: F1.245.2 (antibody, human IgG1, kappa, V domains shown)
VH: B11 VH
VL: B11 VL
notes: Human-murine chimeric IgG1, kappa

Target: T1, monkey CD22 on HEK293T-monkey CD22 cells (monkey)
T1 construct: full-length entry expressed on stably transfected HEK293T cells
T1 chain: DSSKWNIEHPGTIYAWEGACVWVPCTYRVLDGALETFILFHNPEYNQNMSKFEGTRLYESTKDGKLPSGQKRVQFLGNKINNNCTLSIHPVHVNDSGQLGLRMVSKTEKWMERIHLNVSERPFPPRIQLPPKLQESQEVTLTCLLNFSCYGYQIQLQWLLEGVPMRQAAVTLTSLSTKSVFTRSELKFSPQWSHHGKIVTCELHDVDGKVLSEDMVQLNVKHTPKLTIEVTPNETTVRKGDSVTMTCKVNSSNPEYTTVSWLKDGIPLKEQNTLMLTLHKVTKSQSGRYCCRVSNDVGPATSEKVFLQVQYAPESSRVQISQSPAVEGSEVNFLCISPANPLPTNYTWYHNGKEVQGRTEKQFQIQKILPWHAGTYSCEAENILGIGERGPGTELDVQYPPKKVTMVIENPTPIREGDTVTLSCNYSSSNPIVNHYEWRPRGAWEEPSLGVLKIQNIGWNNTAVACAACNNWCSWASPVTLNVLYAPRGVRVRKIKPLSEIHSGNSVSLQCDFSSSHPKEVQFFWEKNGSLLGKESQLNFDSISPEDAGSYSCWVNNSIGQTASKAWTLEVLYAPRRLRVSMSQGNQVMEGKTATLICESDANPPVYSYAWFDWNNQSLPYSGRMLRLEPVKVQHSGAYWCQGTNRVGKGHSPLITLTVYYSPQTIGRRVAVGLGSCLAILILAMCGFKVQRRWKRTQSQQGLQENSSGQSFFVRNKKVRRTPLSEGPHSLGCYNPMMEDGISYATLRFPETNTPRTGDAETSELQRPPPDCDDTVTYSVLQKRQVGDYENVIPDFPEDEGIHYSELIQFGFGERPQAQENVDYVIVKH
Assay: FACS, HEK293T-monkey CD22 cells
Protocol: (§1) For suspension cell Raji, the medium supernatant was directly centrifuged and discarded, and the cell pellet was washed 2 times with PBS. After counting the cells in the previous step, the cell pellet was resuspended with [PBS+2% (w/w) BSA] blocking solution to 2×10⁶ cells/ml, and added to a 96-well FACS reaction plate at 50 μl/well, and then the chimeric antibody test sample was added at 50 μl/well, and incubated on ice for 2 hours. The mixture was centrifuged and washed 3 times with PBS buffer, Alexa Flour 488-labeled secondary antibody (purchased from Invitrogen, catalog number: A-11013) was added at 50 μl/well, and incubated on ice for 1 hour. The obtained mixture was centrifuged and washed 5 times with PBS, and FACS (FACS Canto™, purchased from BD Company) was used for detection and result analysis. Data analysis was performed by software (CellQuest) to obtain the mean fluorescence density (MFI)of the cells. And then software (GraphPad Prism8) was used for analysis, data fitting, and EC50 value calculation. […] The same method was used to detect the binding of the chimeric antibodies to endogenous CD22-negative cell MoLT4 cells (purchased from ATCC, CRL-1582) and CHO-K1 cells.
(§2) HEK293T-monkey CD22 cells were subjected to FACS detection and data analysis according to the method in Example 5.2.

Binder | Maximum mean fluorescence intensity | EC50
B1 | 409 MFI | –
B2 | 22700 MFI | 2.1 nM
B3 | 69 MFI | –
B4 | 251 MFI | –
B5 | 19900 MFI | 0.97 nM
B6 | 25400 MFI | 0.4 nM
B7 | 30500 MFI | 1.26 nM
B8 | 31200 MFI | 1.59 nM
B9 | 5760 MFI | 34.7 nM
B10 | 83 MFI | –

Target: T1, monkey CD22 on HEK293T-monkey CD22 cells
Assay: FACS, HEK293T-monkey CD22 cells, EC50 column
Protocol: as §1, §2

Binder | binding result
B11 | no binding
B1 | no binding
B3 | no binding
B4 | no binding
B12 | no binding
B13 | no binding
B10 | no binding

Target: T2, monkey CD22 (full length, on HEK293T cells) (monkey)
T2 construct: NCBI XP_014979161.2; also called HEK293T-monkey CD22; HEK293T cells overexpressing monkey CD22
T2 chain: T1 chain
Assay: FACS, HEK293T-monkey CD22 cells (293T as parent cells)
Description: as §1, with “The required cells were scale-up cultured in a T-75 cell culture flask to the logarithmic growth phase. For the adherent cell CHO-K1, the medium was aspirated, the cells were washed 2 times with PBS buffer, and then digested with trypsin. After the digestion was terminated, the cells were washed 2 times with PBS buffer. For” for “For”
as §2

Binder | binding result
B14 | no binding (tested: 10 nM)
